# From PMC5433843
# B1: EGFP-Mps1^WT [Drosophila] / MBP-PP1-87B [Drosophila] (parent)
# chain 1: MTTPVPRRTKDMMALGLDSDSEDDFNTPYRPRQAAAGERKQQPVASFQVQTRGKENEPHPLPINMLPRRVSELTMMDSDSDEEDIKSNHNLNCAILNDSFVLSPSQELTNSNSNITTRRTPSAAPLKQSDSNLSFLGRFNDMGINCSSQGSPVANSEKQVAKKTAPTLQAAPSATERRPLQETETPLRNELPSTSKTKPDADFITPQVRTIGSTLAGKSRSAVSNDFRAQKVLFQTPMTVSRAAPVASDSISFSLCDTITESPDIPEPPKKAEPPKSQHPSKKSLDHVFRESDKDNVPDKVDNVEPKELVSIPAVAVPPEQPSHKTSNILKIKNHEYTIDKKLGCGGSSSVFLARRSDSGNEFALKVVDLQADPQVVQGYLNETKLLAKLQGNVCVVALYDYQLVREESKLYMVMEKGDCDLNKILQSYTTNLPLYSLMNILYQMLQAVNYIHQHGVIHSDLKPANFLMVSGRLKLIDFGIASNIAVDSTSIIKFSQAGTFNYISPEALTDTSTGNSPMRRADQPKIKISTKSDVWSLGCILYLLLYQKTPFGHIRNVYAKMSAITTPGTSIEYPAIPPYYPIMLVHMAKNCLQLNPKKRPSCTELLQYPFHMIIPLQNLQIPSRTANSN
# chain 2: MGDVMNIDSIISRLLEVRGARPGKNVQLSEGEIRGLCLKSREIFLSQPILLELEAPLKICGDIHGQYYDLLRLFEYGGFPPESNYLFLGDYVDRGKQSLETICLLLAYKIKYSENFFLLRGNHECASINRIYGFYDECKRRYSIKLWKTFTDCFNCLPVAAIVDEKIFCCHGGLSPDLTSMEQIRRIMRPTDVPDQGLLCDLLWSDPDKDTMGWGENDRGVSFTFGAEVVAKFLQKHEFDLICRAHQVVEDGYEFFAKRMLVTLFSAPNYCGEFDNAGAMMSVDDTLMCSFQILKPADKRKK
# Variants of: B1
# Experiment: pull-down (MBP-PP1-87B beads, S2 cell lysates), western blot chemiluminescence quantification
# Settings: with MBP-PP1-87B [Drosophila]; at least two independent experiments; mean ± SD; parent: 1; read off a plot
row,Variant,ratio to parent
1,chain 1 K231A F234A,0.3
